Data: patent US20210395393A1 (EMSTOPA, published 2021)
Where a chain is given by its changes, count along the chain named.

Key:
[1] = target: T1, recombinant human tPA (rh-tPA: abcam ab92637) (human, UniProt P00750 36-562); experiment: binding ELISA, plate coated with human tPA
T1 construct: Bought protein; also called tPA antigen
Excerpt: (§1) Binding activity of the purified TPAi-1 RHP/RKA F(ab′)2 to the human tPA antigen was compared to that of the purified TPAi-1 RHP/RKA whole IgG1 antibody and RHP/RKA Fab in a binding ELISA. […] The EC50 values for the IgG1 and Fab are in agreement with those seen in earlier experiments. There is a consistent 4-fold difference in avidity between these two formats.

[2] = target: T1, recombinant human tPA (rh-tPA: abcam …); experiment: cell-based or functional assay
[3] = target: T1, recombinant human tPA (rh-tPA: abcam …); experiment: binding ELISA, plate coated with human tPA; reference TPAi-1 RHP/RKA IgG1
Excerpt: as §1

[4] = target: T1, recombinant human tPA (rh-tPA: abcam …); experiment: binding ELISA, plate coated with human tPA; Fab as Expi293 conditioned medium
Excerpt: (§2) Binding activity of the TPAi-1 RHP/RKA Fab to the human tPA antigen was compared to that of the purified TPAi-1 RHP/RKA antibody in a binding ELISA. […] Following purification of TPAi-1 RHP/RKA Fab from a large scale culture, its binding to human tPA was reconfirmed by ELISA (FIG. 23). In this assay, plateauing of both binding curves was more apparent.

[5] = target: T1, recombinant human tPA (rh-tPA: abcam …); experiment: binding ELISA, plate coated with human tPA; reference TPAi-1 RHP/RKA Fab
Excerpt: as §2

[6] = target: T1, recombinant human tPA (rh-tPA: abcam …); experiment: binding ELISA to human tPA after serum incubation
Method: Purified samples of humanised antibodies TPAi-1 RHE/RKA and RHP/RKA were incubated in mouse, human and cynomolgus serum (4.10.1). The binding abilities of the antibodies after 29 days incubation were measured by binding ELISA to human tPA. For each antibody, one ELISA plate compared the binding of the 4° C. control sample to samples incubated at 37° C. in PBS and human serum. A second ELISA plate compared the binding of the 4° C. control sample to samples incubated at 37° C. in mouse and cynomolgus serum. […] Therefore the TPAi-1 RHE/RKA and RHP/RKA antibodies retained their binding capabilities on incubation in mouse, human and cynomolgus serum for 29 days.

T1 sequence (P00750 36-562 limits assumed): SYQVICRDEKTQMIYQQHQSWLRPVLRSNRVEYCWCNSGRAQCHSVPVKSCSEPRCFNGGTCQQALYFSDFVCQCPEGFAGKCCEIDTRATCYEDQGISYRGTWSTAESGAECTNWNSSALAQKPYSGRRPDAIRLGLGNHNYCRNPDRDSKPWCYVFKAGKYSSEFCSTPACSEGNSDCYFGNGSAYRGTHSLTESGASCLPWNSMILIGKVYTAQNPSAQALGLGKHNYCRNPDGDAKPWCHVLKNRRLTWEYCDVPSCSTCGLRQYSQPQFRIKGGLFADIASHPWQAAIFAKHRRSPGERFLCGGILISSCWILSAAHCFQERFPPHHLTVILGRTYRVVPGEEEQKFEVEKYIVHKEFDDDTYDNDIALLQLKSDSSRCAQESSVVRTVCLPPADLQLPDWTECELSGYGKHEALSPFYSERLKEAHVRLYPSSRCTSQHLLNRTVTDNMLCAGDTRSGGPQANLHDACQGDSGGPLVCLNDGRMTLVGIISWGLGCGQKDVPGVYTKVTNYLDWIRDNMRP

B1: TPAi-1 RHP/RKA Fab (Fab, V domains shown)
VH: QVQLVQSGAEVKKPGASVKVSCKASGNTSYWINWVRQATGQGLEWMGRIDPGGGSTGYAQKFQGRVTMTRDTSISTAYMELSSLRSEDTAVYYCASYYYAMAYWGQGTLVTVSS
VL: DVVMTQSPLSLPVTPGEPASISCRSSQSIVHSNGNTYLDWYLQKPGQSPQLLIYKVSNRASGVPDRFSGSGSGTDFTLKISRVEAEDVGVYYCFQGSHVPWTFGGGTKVEIK
notes: Recombinant Fab: RHP variable region in pHuG1_Fab vector with RKA in pHuK, expressed in Expi293 cells; also called TPAi-1 RHP/PKA Fab; humanised Fab
[1]
  EC50: 1.68 nM
[2]
  inhibition of human plasma clot lysis (t-PA 1.5 nM, A405 nm turbidity): ~2 fold (amount against TPAi-1 RHP/RKA)
[3]
  fold difference in avidity between IgG1 and Fab: 4 fold
[4]
  EC50: 1.15 nM

B2: TPAi-1 RHP/RKA F(ab')2 (other)
VH: B1 VH
VL: B1 VL
notes: F(ab')2 made by pepsin digestion of TPAi-1 RHP/RKA IgG1 kappa and gel filtration
[1]
  EC50: 0.379 nM

B3: TPAi-1 RHP/RKA (antibody, V domains shown)
VH: B1 VH
VL: B1 VL
notes: Human IgG1 kappa (pHuG1 / pHuK vectors); also called humanised TPAi-1 (RHP/RKA); humanized TPAi-1
[1]
  EC50: 0.475 nM
[5]
  plateau A650 of the binding curve against the plateau of the Fab curve: ~1.4 fold

B4: TPAi-1 RHE/RKA (antibody, V domains shown)
VH: B1 VH with D71N
VL: B1 VL
notes: Human IgG1 kappa
[6]
  binding result: binds
